# Measurements: article PMC9489729 (2022)
# B1: His-NTV-AviTag (domain or fragment)
# chain: MLTLDTLNVMLAVSEEGLIEEMIIALLASPQLAVFFEKFPRLKAAITDDVPRWREALRSRLKDARVPPELTEEVMCYQQSQLLSTPQFIVQLPQILDLLHRLNSPWAEQARQLVDANSTITSALHTLFLQRWRLSLIVQATTLNQQLLEEEREQLLSEVQERMTLSGQLEPILADNNTAAGRLWDMSAGQLKRGDYQLIVKYGEFLNEQPELKRLAEQLGRSREAKSIPRNDAQMETFRTMVREPATVPEQVDGLQQSDDILRLLPPELATLGITELEYEFYRRLVEKQLLTYRLHGESWREKVIERPVVHKDYDEQPR
# modifications: biotinylated for the BLI binding studies (50 μM D-biotin added to the LB medium during expression)
# What was measured:
# [1] = target: T1, C-terminally His-tagged RavA (E. coli, UniProt P31473 1-498); experiment: BLI; + ADP, pH 7.5
# [2] = target: T1, C-terminally His-tagged RavA; experiment: BLI; no nucleotide, pH 7.5
# [3] = target: T1, C-terminally His-tagged RavA; experiment: BLI; + ATP, KD1 (2:1 heterogeneous ligand model), pH 7.5
# [4] = target: T1, C-terminally His-tagged RavA; experiment: BLI; + ATP, KD2 second site (2:1 heterogeneous ligand model), pH 7.5
# T1 sequence (P31473 whole entry): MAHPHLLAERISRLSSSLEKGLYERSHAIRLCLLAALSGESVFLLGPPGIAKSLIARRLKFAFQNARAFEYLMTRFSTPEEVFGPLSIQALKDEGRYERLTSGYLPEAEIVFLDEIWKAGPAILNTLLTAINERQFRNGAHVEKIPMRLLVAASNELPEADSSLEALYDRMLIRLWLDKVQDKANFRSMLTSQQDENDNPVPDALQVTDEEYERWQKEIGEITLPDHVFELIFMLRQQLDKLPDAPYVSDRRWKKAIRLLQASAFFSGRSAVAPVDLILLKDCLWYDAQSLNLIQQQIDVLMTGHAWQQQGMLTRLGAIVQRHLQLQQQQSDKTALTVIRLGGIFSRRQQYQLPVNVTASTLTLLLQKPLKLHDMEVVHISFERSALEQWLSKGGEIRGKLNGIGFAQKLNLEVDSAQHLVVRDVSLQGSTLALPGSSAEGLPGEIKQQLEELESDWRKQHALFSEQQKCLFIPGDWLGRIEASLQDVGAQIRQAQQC
binder,measurement,setting,value
B1,Kd,[1],12.4 µM
same,Kd,[2],33.3 µM
same,Kd,[3],13.1 µM
same,Kd,[4],4.8 µM
